Test results from paper doi:10.1101/2022.12.06.518574.
Like-named read-outs stand apart in the source and are kept apart here.

Legend:
[1] = biological target: Streptococcus pyogenes enolase, wild type (WT-Sen) (Streptococcus pyogenes (Group A, isolate AP53)); experiment: AUC
[2] = biological target: Streptococcus pyogenes enolase, wild type (WT-Sen) (Streptococcus pyogenes (Group A, isolate AP53)); experiment: AUC; remark: listed apart in the source
[3] = biological target: Streptococcus pyogenes enolase, wild type (WT-Sen) (Streptococcus pyogenes (Group A, isolate AP53)); experiment: cryo-EM structure
[4] = biological target: DOPG/Sen (the Sen variants of Figure 5A-D on DOPG vesicles); experiment: flow cytometry of phospholipid vesicles

Streptococcus pyogenes enolase, wild type (WT-Sen) (enzyme), sequence (A2RFE3 whole entry): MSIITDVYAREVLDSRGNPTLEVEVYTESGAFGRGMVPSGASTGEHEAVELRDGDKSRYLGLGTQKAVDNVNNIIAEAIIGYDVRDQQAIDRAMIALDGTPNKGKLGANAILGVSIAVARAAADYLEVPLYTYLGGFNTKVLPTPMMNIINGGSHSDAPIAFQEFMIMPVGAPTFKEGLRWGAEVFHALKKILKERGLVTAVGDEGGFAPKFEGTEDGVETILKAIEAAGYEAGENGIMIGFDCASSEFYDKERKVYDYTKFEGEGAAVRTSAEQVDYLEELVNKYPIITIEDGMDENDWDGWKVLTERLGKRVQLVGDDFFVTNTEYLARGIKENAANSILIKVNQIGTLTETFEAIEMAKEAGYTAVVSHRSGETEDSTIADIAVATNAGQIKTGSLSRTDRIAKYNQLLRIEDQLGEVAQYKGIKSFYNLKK

percent of vesicles in the gate that defines DOPG/Sen bound to hPg [4] [%]	Substance	percent as octamer [1] [%]	stoichiometry N [1]	percent as octamer [2] [%]	stoichiometry N [2]	stoichiometry N [3]
	Streptococcus pyogenes enolase, wild type (WT-Sen) (enzyme)	> 95	8	> 95	8	8
83 to 93	human plasminogen (hPg) (natural protein)					
